Patent publication US20260167703A1 (Takeda / Millennium, published 2026)
Where two headings read alike, the source gives them in different places.

B1: DENV4-5B11 (antibody, V domains shown)
VH: QSVEESGGRLVTPGTPLTLTCTVSGFSLSDSAMSWVRQAPGKGLEWIGYIYAGSGTTYYASWAKGRFTISKTSTTVDLKITSPTTEDTATYFCARATAYVGYGYGDDTFDPWGPGTLVTVSS
VL: AYDMTQTPASVEVAVGGTVTIKCQASQSISSYLSWYQQKPGQRPKLLIYRASTLASGVSSRFKGSGSGTEFTLTISGVQCDDAATYYCQQGYSNSDVDNVFGGGTEVVVK
notes: also called Clone 5B11
B2: DENV4-7D5 (antibody, V domains shown)
VH: QSVEESGGRLVTPGTPLTLTCTVSGIDLSSWEMGWVRQAPGKGLEWIGIIFPSGTIYYANWAKGRFAISKASTTVDLKITSPTTEDTATYFCGRHGGSLYLNIWGPGTLVTVSL
VL: AQVLTQTPSPVSAAVGGTVTINCQASQSVYVNRNLAWYQQKPGQPPKVLIYEASKLASGVPSRFKGSGSGTQFTLTISGVQCDDAATYYCQGEFGCSSADCIAFGGGTEVVVK
notes: also called Clone 7D5
B3: DENV4-8C7 (antibody, V domains shown)
VH: QSVEESGGRLVTPGTPLTLTCTVSGIDLSSYEMGWVRQAPGKGLEWIGIIFPSGTIYYANWAKGRFTISKTSTTVDLKITSPTTEDTATYFCGRHGGSLYLNIWGPGTLVTVSL
VL: AQVLTQTPSPVSAAVGGTVTINCQASQSVYVNRNLAWYQQKPGQPPKVLIYEASKLASGVPSRFKGSGSGTQFTLTISGVQCDDAATYYCQGEFGCSSADCIAFGGGTEVVVK
notes: also called Clone 8C7
B4: DENV4-7F2 (antibody, V domains shown)
VH: QSVEESGGRLVTPGTPLTLTCTVSGIDLSYYAMGWVRQAPGEGLECIGFIDTGDSAYYASWAKGRFTISKTSSTTVDLKITSPTPEDTATYFCGRSLSSYYDWDAFDPWGPGTLVTVSS
VL: AYDMTQTPASVEVAVGGTVTINCQASQTIGNLLAWYQQKPGQRPKLLIYRASTLASGVPSRFKGSGSGTQFTLTISGVECADAATYYCQQGASANDIDNSFGGGTAVVVK
notes: also called Clone 7F2
B5: DENV4-7G4 (antibody, V domains shown)
VH: QSVEESGGRLVTPGTPLTLTCTVSGFSLSSCAMTWVRQAPGKGLEWIGYIYVDSDTTYYASWAKGRFTISTTSTTVDLRITSPTTEDTATYFCARTTAYVGGGYGDDTFDPWGPGTLVTVSS
VL: DVVMTQTPASVEAAVGGTVTINCQASQNINSYLSWYQQKPGQRPKLLIYRAFTLASGVSSRFKGSGSGTQFTLTISGVECADAATYYCQQGYSFSGVDNVFGGGTEVVVK
notes: also called Clone 7G4
B6: DENV4-9G8 (antibody, V domains shown)
VH: QSLEESGGGLVKPGASLTLTCTASGFSFSYRYWMSWVRQAPGKRPEWIACIDTGNGDTYYASRAKGRFTIMKTSSTTVTLQMTSLTVADTATYFCARSDVTLTGYGYGNLWGPGTLVTVSS
VL: DSVMTQTPASVSEPVGGTVTINCQASHNIYNSLAWYQQKPGQPPKLLIYRASTLESGVPSRVKGSGYGTEYTLTISDLECADAATYYCQQYYGGDDDGFGFGGGTEVVVK
notes: also called Clone 9G8
B7: DENV4-10A11 (antibody, V domains shown)
VH: QSVEESGGRLVTPGTPLTLTCTVSGINLSFYAMGWVRQAPGKGLECVGFIDTDNSAYYASWAKGRFTISKTSTTVDLKITSPTTEDTATYFCARSLSSFYDWDAFDPWGPGTLVTVSS
VL: AYDMTQTPASVEVAVGGTVTIKCLASQSISNLLAWYQQKPGQRPKLLIYRASTLASGVPSRFKGSGSGTQFTLTISGVECADAATYYCQQGASNSDIDNAFGGGTEVVVK
notes: also called Clone 10A11; 10A1l
B8: DENV2-3H11 (antibody, V domains shown)
VH: QSVEESGGRLVTPGTPLTLTCTVSGFSLINYDMSWIRQAPGKGLEWIGMVSGGGHTNYASWANGRFTISKTSSTTMDLKITSPTTEDTASYFCGRWDIWGPGTLVTVSL
VL: AVVVTQTASPVSAAVGGTVTISCQSSQSVYDDNWLAWYQQKPGQPPKQLIYRASRLASGVPSRFSGTGSGTQFTLTISGVQCDDAATYYCLGGYVDDGDTTFGGGTEVVVK
notes: also called DENV2-3H111
B9: DENV2-5F4 (antibody, V domains shown)
VH: QSVEESGGRLVKPDETLTLTCTVSGIDLSNTVISWVRQAPGKGLEYIGMITPSGSAYSATWAKGRVTISRTSTTVDLKIASPTTEDTATYFCARIAWSTGRNDIWGPGTLVTVSS
VL: AAVLTQTPPSVSAAVGGTVTIKCQSSQSVYNNNALSWYQQKPGQPPKLLIYQASKLSSGVSSRFSGSGSGTHFTLTISGVQCDDAATYYCLGIYDDDVDNTFGGGTEVVVG
B10: DENV2-8D8 (antibody, V domains shown)
VH: QSLEESGGRLVKPDETLTLTCTVSGIDLSSTIITWVRQAPGKGLEYIGIIGSSGSIISANWAKGRFTISRTSTTVDLKMTSLTTEDTATYFCARIAWSTGRNDIWGPGTLVTVSS
VL: AAVLTQTPPSVSAAVGGTVTISCQSSQSVYNNNALSWYQQKPGQPPKLLIYLASNLASGVPSRFSGSGSGTQFTLTISGVQCDDAATYHCLGVDDDDVDNTFGGGTEVVVK

Tests used:
DENV-4 VLP [1] = biological target: T1, DENV-4 VLP (Dengue virus serotype 4, strain …, UniProt P09866 114-774); assay: Luminex, VLP-coupled beads
DENV-4 VLP [2] = biological target: T1, DENV-4 VLP
JE VLP [3] = biological target: T2, JE VLP (Japanese encephalitis virus, UniProt P27395); assay: Luminex bead assay (antigen on MagPlex beads, MFI)
T2 construct: virus-like particle; also called Japanese Encephalitis Virus VLP
T2 sequence (P27395 128-794 limits assumed): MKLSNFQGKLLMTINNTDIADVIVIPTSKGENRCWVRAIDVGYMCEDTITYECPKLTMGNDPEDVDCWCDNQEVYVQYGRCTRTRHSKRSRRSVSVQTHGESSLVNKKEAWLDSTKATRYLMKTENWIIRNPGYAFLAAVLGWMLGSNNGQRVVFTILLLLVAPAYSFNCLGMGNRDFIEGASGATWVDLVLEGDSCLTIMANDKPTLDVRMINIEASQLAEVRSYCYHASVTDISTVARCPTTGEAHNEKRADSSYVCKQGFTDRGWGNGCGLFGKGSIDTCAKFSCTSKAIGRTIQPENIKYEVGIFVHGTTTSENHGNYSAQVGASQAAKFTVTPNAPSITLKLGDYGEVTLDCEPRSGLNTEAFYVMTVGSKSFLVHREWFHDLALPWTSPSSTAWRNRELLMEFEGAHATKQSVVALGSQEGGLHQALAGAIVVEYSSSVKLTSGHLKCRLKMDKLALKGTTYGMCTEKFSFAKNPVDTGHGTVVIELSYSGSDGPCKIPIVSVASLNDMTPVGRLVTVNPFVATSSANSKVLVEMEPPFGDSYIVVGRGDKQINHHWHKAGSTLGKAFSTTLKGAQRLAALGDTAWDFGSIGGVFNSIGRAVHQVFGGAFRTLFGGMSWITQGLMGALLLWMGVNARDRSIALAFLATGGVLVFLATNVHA

JE VLP [4] = biological target: T2, JE VLP; assay: Luminex bead assay (antigen on MagPlex beads, MFI); remark: listed apart in the source
JE VLP [5] = biological target: T2, JE VLP; assay: Luminex bead assay (antigen on MagPlex beads, MFI); remark: listed apart in the source
DENV-4 VLP [6] = biological target: T1, DENV-4 VLP; assay: Luminex bead assay (antigen on MagPlex beads, MFI)
JE VLP [7] = biological target: T2, JE VLP; assay: Luminex bead assay (antigen on MagPlex beads, MFI); remark: listed apart in the source
DENV-4 VLP [8] = biological target: T1, DENV-4 VLP; assay: Luminex bead assay (antigen on MagPlex beads, MFI); remark: listed apart in the source

Row | Binder | EC50 (DENV-4 VLP [1]) [µg/mL] | Response (nm) (DENV-4 VLP [2]) | koff (DENV-4 VLP [2]) [s⁻¹] | binding result (JE VLP [3]) | binding result (JE VLP [4]) | binding result (JE VLP [5]) | binding result (DENV-4 VLP [6]) | binding result (JE VLP [7]) | binding result (DENV-4 VLP [8])
1 | B1 | 0.0192 | 2.39 | 2.36e-05 | no binding (tested: 10000 ng/mL) |  |  |  |  | 
2 | B2 | 0.0232 | 2.45 | 3.56e-05 | no binding (tested: 10000 ng/mL) |  |  |  |  | 
3 | B3 | 0.0176 | 2.38 | 3.32e-05 |  | no binding (tested: 10000 ng/mL) |  |  |  | 
4 | B4 | 0.0407 | 2.32 | 3.67e-05 | no binding (tested: 10000 ng/mL) |  |  |  |  | 
5 | B5 | 0.0214 | 2.16 | < 2e-05 | no binding (tested: 10000 ng/mL) |  |  |  |  | 
6 | B6 | 0.0713 | 0.137 | < 2e-05 |  | no binding (tested: 10000 ng/mL) |  |  |  | 
7 | B7 | 0.0236 | 2.17 | 4.17e-05 |  | no binding (tested: 10000 ng/mL) |  |  |  | 
8 | B8 |  |  |  |  |  | no binding (tested: 10000 ng/mL) | no binding (tested: 10000 ng/mL) |  | 
9 | B9 |  |  |  |  |  |  |  | no binding (tested: 10000 ng/mL) | no binding (tested: 10000 ng/mL)
10 | B10 |  |  |  |  |  |  |  | no binding (tested: 10000 ng/mL) | no binding (tested: 10000 ng/mL)
